# Experiment: soluble on expression in E. coli; label from the status in PepcDB or PDB records
row,Sequence,soluble on expression in E. coli
1,MAHHHHHHMVLLPFPPSFYVTTGTTIPFISSPPVAQSGNIYASNESKRLRVDNFFMGFQYSFVADGKLGRGFVFESIEPITTTTASGNNNNNNNNNNNNNNSSEKKSGRGGEERISCRSFALNRGLTGFGVPDEFVRHAESSLVRGVKVWRYTGYSRSGVGPLQEVDYFIRNGTFHAVPWRVQIRRRQTALKELTGSPMTLPNWRYFGGLFFDEVAVPEGPYEDKLERLMQDTTVTLDFYNFVPAEPHPSVFSVPDNCKEVSARFTGNDVDISLAQRFLVDLSLYTPVGREMLREELNSA,not soluble
2,MVNSKVLNTLEYQQVKQQLAPYLVSATGQQALNELHPMTSVADIQRALDETNDGAEVYRLKGGIPVARLADIKPHMKRLAIGATLNGSELGQVGRVLRTTRAITRFFAELLEDAPELEHHHHHH,not soluble
3,MKIIITGEPGVGKTTLVKKIVERLGKRAIGFWTEEVRDPETKKRTGFRIITTEGKKKIFSSKFFTSKKLVGSYGVNVQYFEELAIPILERAYREAKKDRRKVIIIDEIGKMELFSKKFRDLVRQIMHDPNVNVVATIPIRDVHPLVKEIRRLPGAVLIELTPENRDVILEDILSLLERLEHHHHHH,not soluble
4,MVGGLTHVDEKGVKMVEIGYKDVVFRKAVAKGRIKLKPETVKLIKEGKIEKGNVLATAQIAGILAVKRTPELIPLCHPIPITGVDITFDFGEDYIEVTCEVRAYYKTGVEMEALTGVTVALLAIWDMVKAVEKDEKGQYPYTRIENVHVVEKVKTHNSQ,soluble
5,MLMIKGIIFDMDGVLFDTEPFYLRRREDFFKTKGIPIDHLNSKDFIGGNLQELWKELLGKNRDDAIVKAITTDYDAYKQAHKPPYQKLLITEVNSCLEQLEKQGIKLAVASNSKRQDVLLALETTQIKDYFEIILAREDVSRGKPYPDIYNKAVQKLGLQKKQLLVVEDSQKGIAAAKAANLTVFAITDYRYGIDQSQADHKIDHLGQLCVKIGCFGS,not soluble
6,AHHHHHHGSGETLRIAFIYDVIYPWVKGGVERRLYEIAKRLAEKHEVHIYGYKHWDGKKIQEMNGIFYHGTIKPKKIYHGNRRAILPPIFHSINLLFLLKGQHLDIIDCQATPYFPCYASRVSNSNLVITWHEFWGNYWLKYLGRAGFFGKIIERGLFVLTDNHIAVSLKTKKDLYKAGLRKNIYVVPNGIDFEKIQEIKPSSYTSDIIFVGRLIKEKNVPLLLKALTIIKQDIPDVKAVVVGDGPEREYLEKLSFKLNLQDNVKFLGFLNRYEDVVALMKASKVFAFPSLREGFGIVVIEANASGLPVVTVEHEMNASKDLILEWKNGFIAKVNEKDFAEKILIALEKRKKMKKLSTEIARKYNWNEIVKKLERYYRWIA,soluble
7,MAHHHHHHMPTASASREPLVPSINFSMVCPGVYRSGYPTKKNYSFLCALRLRSILYLCPEDYAESNLKFCEENGIHVLRFPTEGNKEPFCDVSEPLMHRILSAICDTRNLPLLIHCNKGKHRTGTVVACLRHLQGWSLVSIFEEYKRFASDKARVGDQQYVELYHPIVKLTPPFVALWVTVTPRVTLVTSDRELMEAEAMQLGYSLLAPDKHLMKNGSSTNKSTAPTAAAASGAASVTAAPAAAAAATAGSGPTVAVSTSGPSAAGAMQQQQPSQPVTSAASASASNSGHSLAPSLMATAATPAAADR,not soluble
8,MGSDKIHHHHHHMEVKPFRPLIYRKEIDGMIAPPFDAITPKEEVELKRNKYNITYLTLPKGRDGIPHAKMLLQSWLENGVLIPMKEDVFIVLRQRFYVGDECINRYGLIAKVKVFPESGDVIPHERTFDMYVKERETLMDGISSQLEPIFLVTLKNDLPGYLKAITDGLKEDNTYFGPENVENFVYYINDKRKINKIISLLAEDKSIVADGHHRLQATKNIAARKSGGEREFWSYAMAYITSIHDPGVLVGGVNRVVSNKFRLDMNVLSKYFEINQVERLDETNINLFNGRLYSLKIRIPVYDNLIDASNDFILSKSASMNYTDIENEVIYTHDIYELMSLVNSGSYSFGIILPRWDKMKLIETLLSGRKLPQKSTYFYPKIPSGLAIDTALELRLS,not soluble
9,MNPSPSIAGLSDIEALERVPLEQRDLPSSTYELLQRSARRHGQRIALSCLLHGSAAEEPLRISYAELFARVTQTANALHRLGLESHQAVSFLLPNLPQTHYVIWGGEAAGIVNAINPLLEPEHIAELIRASNTRVLVTLAPFPGTDLWQKVAGLRAQLPELYAIVVVDPANLLPAPQREALKAQRGPLPEGVLDFDTLIADCPADRLESGRAIHPDDVASYFHTGGTTGTPKLAPHSHFNEVAMAEIMGLNADYGVDDVLLCGLPLFHVNGVMVTGLAPFHRGAQVLLAGPQGYRNPTLIQDFWKLVERYRVTSFSGVPTIYAALLQVPSDGRDLSSLRFALCGAAPMPVELIRQFEARTGLKVIEGYGLTEGTCGTSCNPRGGERRPGSIGLRLPYCQVKVAVLDGEGNYLRDAAPNEVGNLCLKGPTVFKGYLQQDRNRDIWIGDGWFNTGDLGRIDEDGYIWLTGRSKDLIIRGGHNIDPQMIEEALHRHPAVALAAAVGKPDAKAGELPVAYIQLKPGASASEEELLEHASRHVPERAAVPKDIWLIESMPVTAVGKTFKPALRLDAIRRVLEEESRRIAEDIRVEVVADERHGQLAHLHVPALDERRQAALEELLGGYALNYRL,not soluble
10,MSDADPKVPHRGHELLDVLARLGGSARNAQIAQVMDVSEETVRRLVKTLAKQGKVERVHGGTYLRGSQDAPMYSGALEQQPKEKTRIAKGVLELIRDGMTLFINVGSTTTYVAEQLRERRDLTIVTNSISTVASLADHNGSRVFLAGGEVSRSERGCFGRATEDFARRFAYDVLVIGADAMSPELGVLAANPREAELTRALLGNATRVIVAADYRKFSAIAPCIAAPLEAITDLVTDAAPPDALQDALDRCGVATHLAAKSGRITTRTPPPQDVGHSNTNRKTLSFPTEVSLEHHHHHH,soluble
11,MNKNGFSRCADIYIGRLREEGRYSTAHVYQNALLSFSKFCGVHSVSFRQVTRERLRCYEQHLYECGLKPNTISTYMRMLRSIYNRGVEAGSAPYVHRLFHEVYTGVDVRQKRALPVVALRRLLYEDPQSDRLRRTQAIAALMFQFCGMSFADLSHLEKSALDSNVLRYNRVKTKTPMSVEVLDSAQEMLDQLRNRQSPRPGCPDYLFGILHGDKKRKDERAYREYQSALRRFNYCLKSLAKRLRLNFPVTSYTLRHSWATTAKYRGVPIEMISESLGHKSIKTTQIYLKGFELKERTEVNRMNLSYVKRCGVGQCI,not soluble
12,MSLQYQNQDNFPERIEYLVDKLNGPSEFARKTGVTLSTITRWRKGEADPSRSNLVKIAEVTGVSIEWLATGKIKEEKTTEEKPAGSLVSRAFERMQAMLEEGVSMIDSYSSINVSAGFGSFNEGITQPDGQEPYSDELLTSLGVKADNCAVFWANGNSMLPTINNYDQMLVDLSRKEIQGDRIYLVQNGESVWVKRVKMEWDGISLISDNKEEYPPISITGENAQNLQIIGQVVHIGHSLIEGHHHHHH,soluble
13,MGSDKIHHHHHHMINCIIVEDAPLAVDKLKNFISKVPLLDLAGTFDNGLDAFDFLQSNTIDLLFLDIQMEQFTGLQLLQALHTRPHIIIVSAYGEYAVQGFEYDVTDYLLKPYSFERFLKAVNKVQTEMASNPPAQPLPKDYIFLKTEYRMVRINLCDILYIEGKGAYLHVITDTTRIMTLLSFKEIESLLPAKQFIRIHKSYLIAINKIDNIERNVVKIANMRIPIGKSYLKDFYLRLQ,not soluble
14,MPNTADQVDPLLASLSHFVDHTDLLAEHTMNAVEWEAVEVLMPRILRGKSKEDVKQLLLAEIDGMSKKRLDAVLAGETLEESSSSEDEEEQVIGSAGESEKSESPEIPEPEAKMEEQAVEAAEASEASDDGREDGEIRDDQGNTTSTPPDPGSPKSPEKGEAEQLDTDEEIDRLLEEDLEDFL,soluble
15,MGNELIVSVQNRIQEMQHGEGLRLPTGYSVGNALNSAYLILSDNSKGKSLLEKCHPTSVSKALLNMAIQGLSPAKNQCYFVPYGDQCTLMRSYFGSVSILERLSNVKKVHAEVIFEGDEFEIGSEDGRTVVTNFKPSFLNRDNPIIGAFAWVEQTDGIKVYTIMTKKEIYKSWSKAKTKNVQNDYPQEMAKRTVLSRAAKMFINSSSDNDLLVKAINETTEDEYDNNQPRKDITPNPPNIEKLEKSIFNQDENKKIAQDMIDSIDLNQADKDLQEELNIEFPDPSKNYLATGEVNGDVENEDGPYPF,not soluble
16,MYRSEVSKPQLENPNLVDRIIVIILPNYFYEYESVLKHITKENFGIIEKTVKHFKTEEVMEWKSADLESQDIWNLSDRLIDGPCMLLLCQRANAFIEMKEVAKYHNVIAKRMSSSDGIYYSKTTIAAYHDIIFFFPKYIDERAMLKHAKDYLSVEVWPKLSQGLARVAVERPDNPIKWLADYLHQLRQ,not soluble
17,MSLSTPPRAFSLVETGEALTRGDEPSPTRSAVLTRLSHSHMRFGTFQRLAYLDRRDLMVQLVDHVIESYFPDLADESDRPAVLMRAVVSASARLLSRWMSAGFVHGVLNTDNMVVTGESFDYGPWRFLPRNDPNFVAAYFDHAGLYSFGRQPEAVFWNLQQLAGCLSLVTDQAALLAALNSFSDLYRAALRGAMLDRLGLKSRGAEADIALVNTAFRALAEGGETLRWEPFFFDWFGGAASEERALRGPRAGLYAGEAFLDLRRALADFDPDRPERLAHPAFARPEPEELIIDEVEALWSPIADADDWGPLNAKLARIDAAREAYALGQAQIEGHHHHHH,soluble
18,QKRAWITAPVALREGEDLSKKNPIAKIHSDLAEERGLKITYKYTGKGITEPPFGIFVFNKDTGELNVTSILDREETPFFLLTGYALDARGNNVEKPLELRIKVLDINDNEPVFTQD,soluble
19,AEAAAAQAPAAGPGQMSFTFASPTQVFFNSANVRQVDVPTQTGAFGILAAHVPTLQVLRPGLVVVHAEDGTTSKYFVSSGSVTVNADSSVQLLAEEAVTLDMLDLGAAKANLEKAQSELLGAADEATRAEIQIRIEANEALVKALE,soluble
20,MADETPKVKTEPAAEVKSPLDEVKEIRKEAELTQTGSDEKKTTDPEFITVQDPNGDEPIELPTVDGVVLMTTLQASFPGATGLKYKNPKTGANRAVQVDPSGLKLIAPADGWENKTFFVIVAPQSERVRALSSADATSAKRRKVGSSDDSDSDDGRDGRSGRKRAVERDSQPVDLIVLGVDFKTTDECFQKYFEDIGTVVFCEIKRKSDGNSKGFGFVRMSSVGEQNKVLAIPQHMIDGRRCDVKVPDGRDKQGRPSISRIFVGRLTDKVDEHQLRKVFGDEAKSYIETAVVTDVFIPKPFRGFAFVTLSSAEAAERIVSKGSLTVNGLSVGLSIAQPREENNQSVGPDYGLPAGYRNRRERDRPDRRPIQNEAPLPMPFVRPPQDYSYRQQNSPLERRYWAPGDSRGPGW,not soluble
21,MGSDKIHHHHHHMPENLIIPSVDLRIGALEEYNRRQKEKAHHRQKGPKPRPCITLSREFGCEGYPVAESLLKLMPEQTGDQWVLVDKDVLDEVARRHHVSREILEALGTKNRILSQVLATFSERWKTDHEYFELLCSHIVSLAEQGNVIIVGLGGAIITHHREHCYDFRIFGSREFKIGSICQRMNLPPDKAADLIEKQQAQIDNFTREFLFEDEANPAIYDLLFNNDRMCPETMARTIADYVAGRIAAGTADKRHV,not soluble
22,GPGSMQERESLLKEYKGLLANLEEAFDLKRSNEADQEVDDLIDETKAELRTVVASLNASEVIEVTKDVTKVVDADGNTVILYSKVAPYEVHFDNAMWYSCVITDVVQPETALERVRYKAWILGYNVEEETYSEQLRVWQPQAAEGETTLRSGVACHAVNPRSGRFESAKVVRLTLSDTVILTFSDVVEMTKEVGETDGAGAAGELATGKRDPSGGDTSAVTEEVPLSHVRVGRFYQQLRKRSTLTSEERARRRAQNVERKRVRRETKRQQDANVASQNANDWQRLVEDMGLATGCAKKRR,soluble
